Measured values published in patent US20210261648A1 (published 2021).
Changes are numbered by the printed parent chain. In names and notes the source's numbering stands.

B1: IL6R-BP912/IL6R-L (antibody, human IgG1, kappa)
heavy: QVQLQESGPGLVKPSETLSLTCAVSGHSISHDHAWSWVRQPPGEGLEWIGFISYSGITNYNPSLQGRVTISRDNSKNTLYLQMNSLRAEDTAVYYCARSLARTTAMDYWGEGTLVTVSSASTKGPSVFPLAPSSKSTSGGTAALGCLVKDYFPEPVTVSWNSGALTSGVHTFPAVLQSSGLYSLSSVVTVPSSSLGTQTYICNVNHKPSNTKVDKKVEPKSCDKTHTCPPCPAPELLGGDSVFLFPPKPKDTLMISRTPEVTCVVVDVSHEDPEVKFNWYVDGVEVHNAKTKPREEQYNSTYRVVSVLTVLHQDWLNGKEYKCKVSNKALPRPIEKTISKAKGQPREPQVYTLPPSRDELTKNQVSLTCLVKGFYPSDIAVEWESNGQPENNYKTTPPVLDSDGSFFLYSKLTVDKSRWQQGNVFSCSVMHEALHNHYTQESLSLSP
light: not shown
notes: Alterations introduced into IL6R-B3
B2: GpH7-G1d/GpL16-k0 (antibody, human IgG1, kappa)
heavy: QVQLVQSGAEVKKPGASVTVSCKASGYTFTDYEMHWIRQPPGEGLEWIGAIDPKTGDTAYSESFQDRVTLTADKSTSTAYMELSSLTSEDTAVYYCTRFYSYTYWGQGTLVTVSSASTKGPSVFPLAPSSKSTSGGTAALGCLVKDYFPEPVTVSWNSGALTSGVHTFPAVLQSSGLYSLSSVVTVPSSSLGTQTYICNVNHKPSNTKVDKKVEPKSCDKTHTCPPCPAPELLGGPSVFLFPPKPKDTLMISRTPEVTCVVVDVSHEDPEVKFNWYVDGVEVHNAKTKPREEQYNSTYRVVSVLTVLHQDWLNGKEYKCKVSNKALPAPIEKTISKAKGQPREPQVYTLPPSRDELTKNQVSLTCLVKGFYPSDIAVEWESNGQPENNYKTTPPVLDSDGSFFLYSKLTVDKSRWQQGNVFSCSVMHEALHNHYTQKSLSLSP
light: DIVMTQSPLSLPVTPGEPASISCQASESLVHSNRNTYLHWYLQKPGQSPQLLIYKVSNRFSGVPDRFSGSGSGTDFTLKISRVEAEDVGVYYCSQNTHVPPTFGQGTKVEIERTVAAPSVFIFPPSDEQLKSGTASVVCLLNNFYPREAKVQWKVDNALQSGNSQESVTEQDSKDSTYSLSSTLTLSKADYEKHKVYACEVTHQGLSSPVTKSFNRGEC
notes: Anti-glypican 3 IgG1 without C-terminal Gly and Lys
B3: GpH7-AP001/GpH7-BF648/GpL16-k0 (antibody, human IgG1, kappa, name in EU numbering)
heavy 1: QVQLVQSGAEVKKPGASVTVSCKASGYTFTDYEMHWIRQPPGEGLEWIGAIDPKTGDTAYSESFQDRVTLTADKSTSTAYMELSSLTSEDTAVYYCTRFYSYTYWGQGTLVTVSSASTKGPSVFPLAPSSKSTSGGTAALGCLVKDYFPEPVTVSWNSGALTSGVHTFPAVLQSSGLYSLSSVVTVPSSSLGTQTYICNVNHKPSNTKVDKKVEPKSCDKTHTCPPCPAPELLGGDSVFLFPPKPKDTLMISRTPEVTCVVVDVSHEDPEVKFNWYVDGVEVHNAKTKPREEQYNSTYRVVSVLTVLHQDWLNGKEYKCKVSNKALPAPIEKTISKAKGQPREPQVYTLPPSRKELTKNQVSLTCLVKGFYPSDIAVEWESNGQPENNYKTTPPVLDSDGSFFLYSKLTVDKSRWQQGNVFSCSVMHEALHNRYTQKSLSLSP
heavy 2: not shown
light: B2 light
notes: Heterodimerized anti-glypican 3 IgG1; P238D in both chains
B4: GpH7-A5/GpH7-BF648/GpL16-k0 (antibody, human IgG1, kappa)
heavy 1: not shown
heavy 2: not shown
light: B2 light
notes: Heterodimerized anti-glypican 3 IgG1; P238D in the GpH7-B3 chain only
B5: GpH7-AP001/GpH7-BP044/GpL16-k0 (antibody, human IgG1, kappa)
heavy 1: B3 heavy 1
heavy 2: not shown
light: B2 light
notes: Heterodimerized anti-glypican 3 IgG1; copies: 1 + 1 + 2
B6: GpH7-AP001/GpH7-BP057/GpL16-k0 (antibody, human IgG1, kappa)
heavy 1: B3 heavy 1
heavy 2: not shown
light: B2 light
notes: as for B5
B7: GpH7-AP001/GpH7-BP061/GpL16-k0 (antibody, human IgG1, kappa, name in EU numbering)
heavy 1: B3 heavy 1
heavy 2: not shown
light: B2 light
notes: Heterodimerized anti-glypican 3 IgG1
B8: GpH7-AP001/GpH7-BP032/GpL16-k0 (antibody, human IgG1, kappa)
heavy 1: B3 heavy 1
heavy 2: not shown
light: B2 light
notes: as for B5
B9: GpH7-A5/GpH7-B3/GpL16-k0 (antibody, human IgG1, kappa)
heavy 1: not shown
heavy 2: not shown
light: B2 light
notes: Heterodimerized anti-glypican 3 IgG1 (A5: D356K/H435R; B3: K439E); also called A5/B3
B10: IL6R-F652/IL6R-L (antibody, human IgG1, kappa)
heavy: B1 heavy with M254Y, R332A, N436Y, E441K
light: not shown
notes: IL6R-F11 (IL6R-G1d with M252Y/N434Y) with P238D
B11: IL6R-PD079/IL6R-L (antibody, human IgG1, kappa)
heavy: B1 heavy with G239A, M254Y, R332A, N436Y, E441K
light: not shown
notes: PD variant; alterations introduced into IL6R-F11
B12: IL6R-PD087/IL6R-L (antibody, human IgG1, kappa)
heavy: B1 heavy with G239M, M254Y, R332A, N436Y, E441K
light: not shown
notes: as for B11
B13: IL6R-PD080/IL6R-L (antibody, human IgG1, kappa)
heavy: B1 heavy with G239D, M254Y, R332A, N436Y, E441K
light: not shown
notes: as for B11
B14: IL6R-PD086/IL6R-L (antibody, human IgG1, kappa)
heavy: B1 heavy with G239L, M254Y, R332A, N436Y, E441K
light: not shown
notes: as for B11
B15: IL6R-PD082/IL6R-L (antibody, human IgG1, kappa)
heavy: B1 heavy with G239F, M254Y, R332A, N436Y, E441K
light: not shown
notes: as for B11
B16: IL6R-PD081/IL6R-L (antibody, human IgG1, kappa)
heavy: B1 heavy with G239E, M254Y, R332A, N436Y, E441K
light: not shown
notes: as for B11
B17: IL6R-PD094/IL6R-L (antibody, human IgG1, kappa)
heavy: B1 heavy with G239W, M254Y, R332A, N436Y, E441K
light: not shown
notes: as for B11
B18: IL6R-PD095/IL6R-L (antibody, human IgG1, kappa)
heavy: B1 heavy with G239Y, M254Y, R332A, N436Y, E441K
light: not shown
notes: as for B11
B19: IL6R-PD097/IL6R-L (antibody, human IgG1, kappa)
heavy: B1 heavy with S241D, M254Y, R332A, N436Y, E441K
light: not shown
notes: as for B11
B20: IL6R-PD043/IL6R-L (antibody, human IgG1, kappa)
heavy: B1 heavy with L236Y, M254Y, R332A, N436Y, E441K
light: not shown
notes: as for B11

molecular target: T1, FcγRIIa type H extracellular domain with C-terminal His tag (human, UniProt P12318 34-217); experiment: SPR binding amount, relative to IL6R-BF648/IL6R-L
T1 construct: extracellular domain; also called FcγRIIaH; FcgRIIaH; not shown: His tag attached to the C terminus
T1 sequence (looked up): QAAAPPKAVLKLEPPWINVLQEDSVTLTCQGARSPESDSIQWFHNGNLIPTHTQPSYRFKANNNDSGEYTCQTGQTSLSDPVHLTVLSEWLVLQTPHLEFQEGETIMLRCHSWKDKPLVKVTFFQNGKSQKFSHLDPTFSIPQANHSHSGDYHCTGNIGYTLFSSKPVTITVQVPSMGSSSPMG

Row | Binder | relative binding activity (IL6R-BF648/IL6R-L = 100)
1 | B1 | 93

molecular target: T2, FcγRIIb extracellular domain with C-terminal His tag (human, UniProt P31994 43-217); experiment: SPR binding amount, relative to IL6R-BF648/IL6R-L
T2 construct: extracellular domain; For crystallography it was expressed with kifunensine and trimmed with Endo F1; also called FcgRIIb; FcγRIIb extracellular region; not shown: His tag attached to the C terminus
T2 sequence (looked up): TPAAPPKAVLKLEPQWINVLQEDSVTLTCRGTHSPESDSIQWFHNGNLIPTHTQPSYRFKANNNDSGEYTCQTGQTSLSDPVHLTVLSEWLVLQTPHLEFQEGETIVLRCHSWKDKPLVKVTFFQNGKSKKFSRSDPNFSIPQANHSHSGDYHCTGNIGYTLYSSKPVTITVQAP

Row | Binder | relative binding activity (IL6R-BF648/IL6R-L = 100)
2 | B1 | 103

molecular target: T3, FcγRIa extracellular domain with C-terminal His tag (human, UniProt P12314 16-292); experiment: SPR binding amount, relative to IL6R-BF648/IL6R-L
T3 construct: also called FcgRIa; not shown: His tag attached to the C terminus
T3 sequence (P12314 16-292): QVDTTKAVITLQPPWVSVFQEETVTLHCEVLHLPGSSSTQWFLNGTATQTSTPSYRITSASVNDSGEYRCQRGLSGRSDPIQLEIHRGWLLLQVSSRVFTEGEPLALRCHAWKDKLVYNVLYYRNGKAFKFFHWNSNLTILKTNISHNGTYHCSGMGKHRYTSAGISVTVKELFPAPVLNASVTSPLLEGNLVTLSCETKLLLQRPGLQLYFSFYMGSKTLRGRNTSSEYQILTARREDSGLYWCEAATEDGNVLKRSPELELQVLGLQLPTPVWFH

Row | Binder | relative binding activity (IL6R-BF648/IL6R-L = 100)
3 | B1 | 60

molecular target: T2, FcγRIIb extracellular domain with …; experiment: SPR binding amount, relative to GpH7-AP001/GpH7-BF648/GpL16-k0

Row | Binder | binding amount to FcgRIIb when that of GpH7-AP001/GpH7-BF648 is defined as 100
4 | B2 | 65
5 | B3 | 100
6 | B4 | 131
7 | B5 | 127
8 | B6 | 121
9 | B7 | 80
10 | B8 | 129
11 | B9 | 77

Molecular target: T4, FcγRIIa type R extracellular domain with C-terminal His tag (human, UniProt P12318 34-217)
T4 chain: T1 sequence (looked up) with H134R
Experiment: as above

Row | Binder | binding amount to FcgRIIaR when that of GpH7-AP001/GpH7-BF648 is defined as 100
12 | B2 | 515
13 | B3 | 100
14 | B4 | 677
15 | B5 | 609
16 | B6 | 561
17 | B8 | 538
18 | B9 | 570

molecular target: T2, FcγRIIb extracellular domain with …; experiment: SPR binding amount, relative to IL6R-F652/IL6R-L

Row | Binder | relative binding activity to FcγRIIb (IL6R-F652/IL6R-L = 100)
19 | B10 | 100
20 | B11 | 101
21 | B12 | 109
22 | B13 | 127
23 | B14 | 112
24 | B15 | 108
25 | B16 | 101
26 | B17 | 122
27 | B18 | 124
28 | B19 | 139
29 | B20 | 112

Molecular target: T4, FcγRIIa type R extracellular domain …
Experiment: SPR binding amount, relative to IL6R-F652/IL6R-L

Row | Binder | relative binding activity to FcγRIIaR (IL6R-F652/IL6R-L = 100)
30 | B10 | 100
31 | B11 | 138
32 | B12 | 196
33 | B13 | 222
34 | B14 | 268
35 | B15 | 380
36 | B16 | 117
37 | B17 | 593
38 | B18 | 543
39 | B19 | 844
40 | B20 | 175

molecular target: T2, FcγRIIb extracellular domain with …; experiment: SPR binding amounts, FcgRIIb divided by FcgRIIaR

Row | Binder | amount binding to FcgRIIb/amount binding to FcgRIIaR
41 | B2 | 0.5
42 | B3 | 4
43 | B4 | 0.8
44 | B5 | 0.8
45 | B6 | 0.9
46 | B7 | 2.9
47 | B8 | 1
48 | B9 | 0.5
